Data published in PMC9352680, “A comprehensive thermodynamic model for RNA binding by the Saccharomyces cerevisiae Pumilio protein PUF4”.
Changes are numbered by the printed parent chain. Names and notes keep the numbering of the source.

T1: PUF4 RNA-binding domain (Saccharomyces cerevisiae, UniProt P25339 537-888)
T1 sequence: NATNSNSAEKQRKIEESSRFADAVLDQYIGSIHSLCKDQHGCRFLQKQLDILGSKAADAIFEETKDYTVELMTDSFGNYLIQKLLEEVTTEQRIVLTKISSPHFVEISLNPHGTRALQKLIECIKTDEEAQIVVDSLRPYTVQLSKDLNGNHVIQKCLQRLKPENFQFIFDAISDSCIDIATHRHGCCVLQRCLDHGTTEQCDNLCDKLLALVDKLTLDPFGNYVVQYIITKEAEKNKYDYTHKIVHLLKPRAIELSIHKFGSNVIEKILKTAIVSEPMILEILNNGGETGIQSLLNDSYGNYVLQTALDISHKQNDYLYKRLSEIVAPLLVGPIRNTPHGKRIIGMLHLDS

B1: Id_i_S1_P3E.4_K3.3_C3.2_[C-2T]_[T-1G]_H3.3_A3.1_F3.1_T3.2 (ssRNA)
RNA: UCUCUUUGACACUAUAUAUCUCUU
B2: Ic_S1_P4E.1_K4.1_C4.1_H4.1_A4.1_[T7C]_F4.1_[A9C]_T4.1 (ssRNA)
RNA: UCUCUUUGUAUACUCUCUCUU
B3: Id_i_S1_P3E.3_K3.2_C3.2_[C-2A]_[T-1C]_H3.2_A3.1_F3.1_T3.2 (ssRNA)
RNA: UCUCUUACUAUAUAUAUAUCUCUU
B4: Id_ii_S1_P3E.3_K3.2_C3.2_[C-2T]_[T-1G]_H3.2_A3.1_F3.1_T3.2 (ssRNA)
RNA: UCUCUUUGUAUAUAUAUAUCUCUU
B5: Ic_S1_P4E.1_K4.1_C4.1_H4.1_A4.1_[T7G]_F4.1_[A9T]_T4.1 (ssRNA)
RNA: UCUCUUUGUAUAGUUUCUCUU
B6: Ic_S1_P4E.1_K4.1_C4.1_H4.1_A4.1_[T7A]_F4.1_[A9C]_T4.1 (ssRNA)
RNA: UCUCUUUGUAUAAUCUCUCUU
B7: Id_i_S1_P3E.2_K3.1_C3.2_[C-2A]_[T-1G]_H3.1_A3.1_F3.1_T3.2 (ssRNA)
RNA: UCUCUUAGUGUAUAUAUAUCUCUU
B8: Id_i_S1_P3E.3_K3.2_C3.2_[C-2A]_[T-1A]_H3.2_A3.1_F3.1_T3.2 (ssRNA)
RNA: UCUCUUAAUAUAUAUAUAUCUCUU
B9: Ic_S1_P4E.1_K4.1_C4.1_H4.1_A4.1_[T7G]_F4.1_[A9C]_T4.1 (ssRNA)
RNA: UCUCUUUGUAUAGUCUCUCUU
B10: Id_ii_S1_P3E.4_K3.3_C3.2_[C-2A]_[T-1G]_H3.3_A3.1_F3.1_T3.2 (ssRNA)
RNA: UCUCUUAGACACUAUAUAUCUCUU
B11: Id_ii_S1_P3E.2_K3.1_C3.2_[C-2T]_[T-1A]_H3.1_A3.1_F3.1_T3.2 (ssRNA)
RNA: UCUCUUUAUGUAUAUAUAUCUCUU
B12: Id_ii_S1_P3E.4_K3.3_C3.2_[C-2T]_[T-1A]_H3.3_A3.1_F3.1_T3.2 (ssRNA)
RNA: UCUCUUUAACACUAUAUAUCUCUU
B13: Id_i_S1_P3E.2_K3.1_C3.2_[C-2A]_[T-1A]_H3.1_A3.1_F3.1_T3.2 (ssRNA)
RNA: UCUCUUAAUGUAUAUAUAUCUCUU
B14: Id_i_S1_P3E.4_K3.3_C3.2_[C-2T]_[T-1C]_H3.3_A3.1_F3.1_T3.2 (ssRNA)
RNA: UCUCUUUCACACUAUAUAUCUCUU
B15: Id_ii_S1_P3E.3_K3.2_C3.2_[C-2T]_[T-1C]_H3.2_A3.1_F3.1_T3.2 (ssRNA)
RNA: UCUCUUUCUAUAUAUAUAUCUCUU
B16: Ia_S1_P4E.1_K4.1_C4.1_H4.1_A4.1_[T5A]_F4.1_T4.1 (ssRNA)
RNA: UCUCUUUGUAAAUUAUCUCUU
B17: Id_i_S1_P3E.3_K3.2_C3.2_[C-2T]_[T-1A]_H3.2_A3.1_F3.1_T3.2 (ssRNA)
RNA: UCUCUUUAUAUAUAUAUAUCUCUU
B18: Id_i_S1_P3E.3_K3.2_C3.2_[C-2G]_[T-1C]_H3.2_A3.1_F3.1_T3.2 (ssRNA)
RNA: UCUCUUGCUAUAUAUAUAUCUCUU
B19: Id_ii_S1_P3E.2_K3.1_C3.2_[C-2T]_[T-1C]_H3.1_A3.1_F3.1_T3.2 (ssRNA)
RNA: UCUCUUUCUGUAUAUAUAUCUCUU
B20: Id_i_S1_P3E.4_K3.3_C3.2_[C-2G]_[T-1C]_H3.3_A3.1_F3.1_T3.2 (ssRNA)
RNA: UCUCUUGCACACUAUAUAUCUCUU
B21: Id_ii_S1_P3E.2_K3.1_C3.2_[C-2T]_[T-1G]_H3.1_A3.1_F3.1_T3.2 (ssRNA)
RNA: UCUCUUUGUGUAUAUAUAUCUCUU
B22: Id_i_S1_P3E.3_K3.2_C3.2_[C-2A]_[T-1G]_H3.2_A3.1_F3.1_T3.2 (ssRNA)
RNA: UCUCUUAGUAUAUAUAUAUCUCUU
B23: Ic_S1_P4E.1_K4.1_C4.1_H4.1_A4.1_[T7A]_F4.1_[A9G]_T4.1 (ssRNA)
RNA: UCUCUUUGUAUAAUGUCUCUU
B24: Ic_S4_P5E.1_K5.1_C5.1_H5.1_A5.1_[T5C]_[T6A]_[A7T]_F5.1_[T8A]_[T9A]_[A10C]_T5.1 (ssRNA)
RNA: UUUGACAACUGAUCGUUCUUUCUUGUACAUAACUUCUUUCUCGAUCAGUUGUCUUU
B25: Ic_S4_P5E.1_K5.1_C5.1_H5.1_A5.1_[T5C]_[T6A]_F5.1_[T9G]_[A10G]_T5.1 (ssRNA)
RNA: B24 RNA with U30A, A31U, A32G, C33G
B26: Ic_S4_P5E.1_K5.1_C5.1_H5.1_A5.1_[T5A]_[T6C]_[A7T]_F5.1_[T8A]_[T9A]_T5.1 (ssRNA)
RNA: B24 RNA with C28A, A29C, C33A
B27: Ic_S4_P5E.1_K5.1_C5.1_H5.1_A5.1_[T5A]_[A7T]_F5.1_[T8A]_[A10C]_T5.1 (ssRNA)
RNA: B24 RNA with C28A, A29U, A32U
B28: Ic_S4_P5E.1_K5.1_C5.1_H5.1_A5.1_[T5A]_[T6A]_F5.1_[T8C]_[T9A]_[A10C]_T5.1 (ssRNA)
RNA: B24 RNA with C28A, U30A, A31C
B29: Ic_S4_P5E.1_K5.1_C5.1_H5.1_A5.1_[A7T]_F5.1_[T8A]_[T9A]_T5.1 (ssRNA)
RNA: B24 RNA with C28U, A29U, C33A
B30: Ic_S4_P5E.1_K5.1_C5.1_H5.1_A5.1_[T5A]_[T6C]_[A7C]_F5.1_[A10T]_T5.1 (ssRNA)
RNA: B24 RNA with C28A, A29C, U30C, A31U, A32U, C33U
B31: Ic_S4_P5E.1_K5.1_C5.1_H5.1_A5.1_[T6A]_[A7T]_F5.1_[T8C]_[T9C]_[A10T]_T5.1 (ssRNA)
RNA: B24 RNA with C28U, A31C, A32C, C33U
B32: Ic_S4_P5E.1_K5.1_C5.1_H5.1_A5.1_[T5G]_[A7T]_F5.1_[T8C]_[A10T]_T5.1 (ssRNA)
RNA: B24 RNA with C28G, A29U, A31C, A32U, C33U
B33: Ic_S4_P5E.1_K5.1_C5.1_H5.1_A5.1_[T5A]_[T6C]_[A7T]_F5.1_[T8C]_[T9C]_[A10C]_T5.1 (ssRNA)
RNA: B24 RNA with C28A, A29C, A31C, A32C
B34: Ic_S4_P5E.1_K5.1_C5.1_H5.1_A5.1_[T5A]_[T6A]_[A7T]_F5.1_[T8A]_[T9C]_[A10G]_T5.1 (ssRNA)
RNA: B24 RNA with C28A, A32C, C33G
B35: Ic_S4_P5E.1_K5.1_C5.1_H5.1_A5.1_[T5C]_F5.1_[T8A]_[T9C]_[A10C]_T5.1 (ssRNA)
RNA: B24 RNA with A29U, U30A, A32C
B36: Ic_S4_P5E.1_K5.1_C5.1_H5.1_A5.1_[T5G]_[A7C]_F5.1_[T9C]_[A10G]_T5.1 (ssRNA)
RNA: B24 RNA with C28G, A29U, U30C, A31U, A32C, C33G
B37: Ic_S4_P5E.1_K5.1_C5.1_H5.1_A5.1_[T5A]_[T6A]_[A7T]_F5.1_[T9A]_T5.1 (ssRNA)
RNA: B24 RNA with C28A, A31U, C33A
B38: Ic_S4_P5E.1_K5.1_C5.1_H5.1_A5.1_[T5G]_[T6C]_[A7T]_F5.1_[T8C]_T5.1 (ssRNA)
RNA: B24 RNA with C28G, A29C, A31C, A32U, C33A
B39: Ic_S4_P5E.1_K5.1_C5.1_H5.1_A5.1_[T6G]_[A7T]_F5.1_[T8A]_[T9A]_T5.1 (ssRNA)
RNA: B24 RNA with C28U, A29G, C33A
B40: Ic_S4_P5E.1_K5.1_C5.1_H5.1_A5.1_[A7G]_F5.1_[T8C]_[T9C]_[A10T]_T5.1 (ssRNA)
RNA: B24 RNA with C28U, A29U, U30G, A31C, A32C, C33U
B41: Ic_S4_P5E.1_K5.1_C5.1_H5.1_A5.1_[T5C]_[T6G]_[A7C]_F5.1_[T9A]_[A10C]_T5.1 (ssRNA)
RNA: B24 RNA with A29G, U30C, A31U
B42: Ic_S4_P5E.1_K5.1_C5.1_H5.1_A5.1_[T5A]_[A7G]_F5.1_[T8G]_[A10C]_T5.1 (ssRNA)
RNA: B24 RNA with C28A, A29U, U30G, A31G, A32U
B43: Ic_S4_P5E.1_K5.1_C5.1_H5.1_A5.1_[T6A]_[A7T]_F5.1_[T8A]_[T9A]_[A10T]_T5.1 (ssRNA)
RNA: B24 RNA with C28U, C33U
B44: Ic_S4_P5E.1_K5.1_C5.1_H5.1_A5.1_[T6A]_[A7C]_F5.1_[T8C]_[T9G]_[A10G]_T5.1 (ssRNA)
RNA: B24 RNA with C28U, U30C, A31C, A32G, C33G
B45: Ic_S4_P5E.1_K5.1_C5.1_H5.1_A5.1_[T6A]_[A7G]_F5.1_[T8C]_[T9A]_[A10T]_T5.1 (ssRNA)
RNA: B24 RNA with C28U, U30G, A31C, C33U
B46: Ic_S4_P5E.1_K5.1_C5.1_H5.1_A5.1_[A7C]_F5.1_[T9G]_[A10G]_T5.1 (ssRNA)
RNA: B24 RNA with C28U, A29U, U30C, A31U, A32G, C33G
B47: Ic_S4_P5E.1_K5.1_C5.1_H5.1_A5.1_[T6A]_[A7T]_F5.1_[T8A]_[T9C]_[A10G]_T5.1 (ssRNA)
RNA: B24 RNA with C28U, A32C, C33G
B48: Ic_S4_P5E.1_K5.1_C5.1_H5.1_A5.1_[T6C]_F5.1_[T8G]_[A10C]_T5.1 (ssRNA)
RNA: B24 RNA with C28U, A29C, U30A, A31G, A32U
B49: Ic_S4_P5E.1_K5.1_C5.1_H5.1_A5.1_[T5C]_[T6G]_[A7C]_F5.1_[T8C]_[T9C]_T5.1 (ssRNA)
RNA: B24 RNA with A29G, U30C, A31C, A32C, C33A
B50: Ic_S4_P5E.1_K5.1_C5.1_H5.1_A5.1_[T5A]_[T6C]_[A7T]_F5.1_[T8A]_[A10C]_T5.1 (ssRNA)
RNA: B24 RNA with C28A, A29C, A32U
B51: Ic_S4_P5E.1_K5.1_C5.1_H5.1_A5.1_[T6A]_[A7T]_F5.1_[T8C]_[T9G]_[A10G]_T5.1 (ssRNA)
RNA: B24 RNA with C28U, A31C, A32G, C33G
B52: Ic_S4_P5E.1_K5.1_C5.1_H5.1_A5.1_[T6G]_[A7G]_F5.1_[T8C]_[A10C]_T5.1 (ssRNA)
RNA: B24 RNA with C28U, A29G, U30G, A31C, A32U
B53: Ic_S4_P5E.1_K5.1_C5.1_H5.1_A5.1_[T5C]_[T6A]_[A7G]_F5.1_[T9G]_[A10C]_T5.1 (ssRNA)
RNA: B24 RNA with U30G, A31U, A32G
B54: Id_ii_S1_P3E.2_K3.1_C3.2_[C-2G]_[T-1C]_H3.1_A3.1_F3.1_T3.2 (ssRNA)
RNA: UCUCUUGCUGUAUAUAUAUCUCUU
B55: Id_i_S1_P3E.2_K3.1_C3.2_[C-2A]_[T-1C]_H3.1_A3.1_F3.1_T3.2 (ssRNA)
RNA: UCUCUUACUGUAUAUAUAUCUCUU

Molecular target: T1, PUF4 RNA-binding domain
Assay: Mg; RNA-MaP; 20 mM Na-HEPES pH 7.4, 30 mM KOAc, 0.75 mM MgCl2, 0.1% Tween-20, 5% glycerol, 0.1 mg/mL BSA, 2 mM DTT; 25 C; 0.0125-409.6 nM protein
Conditions: tags: N-His6-TEV cleaved; C-SNAP kept, Cy3B-labelled; label: tethered on chip by stalled RNA polymerase

Binder	Kd [nM]
B1	2180
B2	9.32
B3	458
B4	6.55
B5	9.53
B6	15.8
B7	14.6
B8	675
B9	23.4
B10	> 2300
B11	8.02
B12	2160
B13	7.22
B14	> 2300
B15	368
B16	2.08
B17	439
B18	569
B19	3.33
B20	116
B21	6.24
B22	576
B23	6.03
B24	7.13
B25	16.9
B26	233
B27	126
B28	190

Binder	Kd [nM]
B29	38.9
B30	18
B31	14.7
B32	91.8
B33	198
B34	50.2
B35	229
B36	425
B37	2.48
B38	10.1
B39	55.6
B40	402
B41	6.66
B42	1350
B43	2.4
B44	144
B45	56.4
B46	27.2
B47	6.59
B48	342
B49	463
B50	156
B51	72.8
B52	849
B53	10.6
B54	7.65
B55	9.07
